According to publication PMC10767033 (Scientific Reports, 2024):

Target: T1, galectin-3 (Homo sapiens (assumed; ), UniProt P17931, biotin (biotinylated galectin-3))
T1 construct: galectin-3
Assay: ELISA; biotinylated galectin-3 (10 µg/mL) captured on NeutrAvidin-coated wells blocked with 3% skim milk; VHH at 800, 400 and 200 nM in solution, 30 min; detected with HRP anti-FLAG antibody; absorbance at 450 nm
Details: both partners purified

T1 sequence (P17931 whole entry): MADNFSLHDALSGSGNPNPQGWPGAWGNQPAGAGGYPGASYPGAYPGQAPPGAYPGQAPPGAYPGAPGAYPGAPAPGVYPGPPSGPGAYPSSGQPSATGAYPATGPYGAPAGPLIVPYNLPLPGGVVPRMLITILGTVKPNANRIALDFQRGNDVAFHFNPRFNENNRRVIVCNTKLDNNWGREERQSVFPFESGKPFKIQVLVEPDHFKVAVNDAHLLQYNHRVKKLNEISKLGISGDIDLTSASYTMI

B1: wild-type VHH (3DWT) (VHH)
VHH: QVQLVESGGGSVQAGGSLRLSCTASGGSEYSYSTFSLGWFRQAPGQEREAVAAIASMGGLTYYADSVKGRFTISRDNAKNTVTLQMNNLKPEDTAIYYCAAVRGYFMRLPSSHNFRYWGQGTQVTVSS
notes: framework 1 of the VHH of PDB 3DWT; CDR1 (13 aa) of the wild type; framework 2 of the VHH of PDB 3DWT; CDR2 (10 aa) of the wild type; framework 3 of the VHH of PDB 3DWT; CDR3 (16 aa) of the wild type; framework 4 of the VHH of PDB 3DWT; also called wild-type 3DWT; source: E. coli BL21(DE3), purified (IMAC, SEC)
- binding result: no binding (tested: 800 nM, 400 nM, and 200 nM of VHHs)
